Test results: patent US20230176070A1 (published 2023)

What was measured:
human serum albumin [1] = biological target: T1, human serum albumin (human, UniProt P02768 25-609); experiment: SPR, HSA immobilised;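 also: nanobody analytes injected as dilution series across three log units over CM5 chip with amine-coupled antigen, kinetics fitted by 1:1 Langmuir model, optionally with mass transfer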
T1 construct: In the mutant screen wild type HSA came from medium of transfected HeLa cells; also called HSA; wild type HSA
T1 sequence (P02768 25-609 limits assumed): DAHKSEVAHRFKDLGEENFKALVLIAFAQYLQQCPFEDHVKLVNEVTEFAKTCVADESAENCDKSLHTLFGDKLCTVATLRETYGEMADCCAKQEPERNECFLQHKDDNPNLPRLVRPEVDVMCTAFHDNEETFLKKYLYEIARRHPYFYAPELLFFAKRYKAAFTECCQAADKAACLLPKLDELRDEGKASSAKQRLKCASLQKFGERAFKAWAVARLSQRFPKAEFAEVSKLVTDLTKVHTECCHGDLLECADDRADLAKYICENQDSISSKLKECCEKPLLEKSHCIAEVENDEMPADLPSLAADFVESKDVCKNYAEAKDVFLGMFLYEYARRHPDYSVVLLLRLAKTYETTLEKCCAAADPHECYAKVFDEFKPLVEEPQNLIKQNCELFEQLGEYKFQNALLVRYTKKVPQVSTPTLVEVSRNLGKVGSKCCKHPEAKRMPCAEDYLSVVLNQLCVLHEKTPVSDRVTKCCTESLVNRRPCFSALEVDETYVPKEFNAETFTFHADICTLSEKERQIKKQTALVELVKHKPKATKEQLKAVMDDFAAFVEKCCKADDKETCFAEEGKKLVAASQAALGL
Procedure: (§1) Nb affinity measurement by SPR. Surface plasmon resonance (SPR, Biacore 3000 system, GE Healthcare) was used to measure Nb affinities. Antigen proteins immobilized on the activated CM5 sensor-chip by the following steps. Protein analytes were diluted to 10-30 μg/ml in 10 mM sodium acetate, pH 4.5, and were injected into the SPR system at 5 μl/min for 420 s. The surface of the sensor was then blocked by 1 M ethanolamine-HCl (pH 8.5). For each Nb analyte, a series of dilution (spanning three orders of magnitude) was injected in HBS-EP+ running buffer (GE-Healthcare) containing 2 mM DTT, at a flow rate of 20-30 μl/min for 120-180 s, followed by a dissociation time of 5-20 mins based on dissociation rate. Between each injection, the sensor chip surface was regenerated with the low pH buffer containing 10 mM glycine-HCl (pH 1.5-2.5), or high pH buffer of 20-40 mM NaOH (pH 12-13). The regeneration was performed with a flow rate of 40-50 μl/min for 30 s. The measurements were duplicated and only highly reproducible data was used for analysis. Binding sensorgrams for each Nb were processed and analyzed using BIAevaluation by fitting with 1:1 Langmuir model or 1:1 Langmuir model with mass transfer.

human serum albumin [2] = biological target: T1, human serum albumin; experiment: indirect ELISA, HSA coated
Procedure: (§2) Indirect ELISA was carried out to evaluate the camelid immune response of an antigen and to quantify the relative affinities of antigen-specific Nbs. An antigen was coated onto a 96-well ELISA plate (R&D system) at an amount of approximately 1-10 ng per well in a coating buffer (15 mM sodium carbonate, 35 mM sodium bicarbonate, pH 9.6) overnight at 4° C. The well surface was then blocked with a blocking buffer (DPBS, 0.05% Tween 20, 5% milk) at room temperature for 2 hours. To test an immune response, the immunized serum was serially 5-fold diluted in the blocking buffer. The diluted sera were incubated with the antigen coated wells at room temperature for 2 hours. HRP-conjugated secondary antibodies against llama Fc (Bethyl) were diluted 1:10,000 in the blocking buffer and incubated with each well for 1 hour at room temperature. […] Nbs of both specific binders for test and scramble negative controls were serially 10-fold diluted from 10 μM to 1 μM in the blocking buffer. HRP-conjugated secondary antibodies against His-tag (Genscript) or T7-tag (Thermo) were diluted 1:5,000 or 1:10,000 in the blocking buffer and incubated for 1 hour at room temperature. Three washes with 1x PBST (DPBS, 0.05% Tween 20) were carried out to remove nonspecific absorbance between incubations. After the final wash, the samples were further incubated under dark with freshly prepared w3,3′,5,5′-Tetramethylbenzidine (TMB) substrate for 10 mins at room temperature to develop the signals. After the STOP solution (R&D system), the plates were read at multiple wavelengths (450 nm and 550 nm) on a plate reader (Multiskan GO, Thermo Fisher). A false positive Nb binder was defined if any of the following two criteria was met: i) the ELISA signal can only be detected at a concentration of 10 μM and was under detected at 1 μM concentration. ii) At 1 μM concentration, a pronounced signal decrease (by more than 10-fold) was detected compared to the signal at 10 μM, while there were no signals can be detected at lower concentrations. The raw data was processed by Prism 7 (GraphPad) to fit into a 4PL curve and to calculate logIC50.

MBP-PDZ fusion protein = biological target: T2, MBP-PDZ fusion protein (mammalian (so in the source), UniProt P57105 6-100, limits assumed); experiment: beads-binding assay, MBP-PDZ-coupled resin
T2 construct: domain: PDZ domain; also called MBP fusion PDZ
T2 sequence (looked up): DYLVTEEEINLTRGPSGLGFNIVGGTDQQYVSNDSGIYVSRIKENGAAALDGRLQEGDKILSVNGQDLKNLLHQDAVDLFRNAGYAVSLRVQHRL
Procedure: After Nb induction and cell lysis, the cell lysates were run on SDS-PAGE to estimate Nb expression levels. Recombinant Nbs in the cell lysis were diluted in 1x DPBS (pH 7.4) to a final concentration of ˜5 μM (for GST Nbs) and ˜50 nM (for PDZ Nbs). To test the specific interactions of Nbs with antigens, different antigens were coupled to the CNBr resin. Inactivated or MBP-conjugated CNBr resin was used for control. Antigen coupled resins or control resins were incubated with Nb lysates at 4° C. for 30 mins. The resins were then washed three times with a washing buffer (1x DPBS with 150 mM NaCl and 0.05% Tween 20) to remove nonspecific bindings. Specific antigen bound Nbs were then eluted from the resins by the hot LDS buffer containing 20 mM DTT and ran on SDS-PAGE. The intensities of Nbs on the gel were compared between antigen specific signals and control signals to derive the false positive binding.

[3] = biological target: T3, glutathione S-transferase (UniProt P08515 1-218 = GST); experiment: SPR, GST immobilised;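 also: nanobody analytes injected as dilution series over three orders of magnitude across antigen on a CM5 chip, kinetics fitted by 1:1 Langmuir model, optionally with mass transfer, duplicate runs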
T3 construct: Expressed in E. coli, purified on GSH resin; also called GST
T3 sequence (P08515 whole entry): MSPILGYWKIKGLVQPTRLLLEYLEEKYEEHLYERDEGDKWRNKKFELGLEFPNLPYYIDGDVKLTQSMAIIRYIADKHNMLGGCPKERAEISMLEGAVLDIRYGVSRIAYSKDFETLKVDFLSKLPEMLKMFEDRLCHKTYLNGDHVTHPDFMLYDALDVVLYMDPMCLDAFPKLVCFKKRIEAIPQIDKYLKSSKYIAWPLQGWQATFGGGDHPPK
Procedure: as §1

[4] = biological target: T3, glutathione S-transferase; experiment: SPR, GST immobilised (legend of FIG. 3H; differs from Table 1)
Procedure: as §1

[5] = biological target: T3, glutathione S-transferase; experiment: indirect ELISA, GST coated;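 also: nanobody dilution series starting at 10 µM binding plate-bound antigen, HRP anti-His or anti-T7 tag detection, TMB absorbance at 450 nm, logIC50 from four-parameter logistic fit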
Procedure: as §2

human serum albumin [6] = biological target: T1, human serum albumin; experiment: SPR, HSA immobilised (legend of FIG. 3I; differs from Table 2)
Procedure: as §1

[7] = biological target: T4, PDZ domain of mitochondrial outer membrane protein 25 (mammalian (so in the source), UniProt P57105 6-100, limits assumed); experiment: indirect ELISA, wild type PDZ coated
T4 construct: domain: PDZ domain; Wild type PDZ as coated in ELISA and immobilised in SPR; also called wild type PDZ; OMP25 PDZ domain
T4 sequence (looked up): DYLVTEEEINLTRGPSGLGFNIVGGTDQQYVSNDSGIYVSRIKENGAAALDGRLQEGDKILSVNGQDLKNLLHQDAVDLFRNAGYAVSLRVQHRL
Procedure: Indirect ELISA was carried out to evaluate the camelid immune response of an antigen and to quantify the relative affinities of antigen-specific Nbs. An antigen was coated onto a 96-well ELISA plate (R&D system) at an amount of approximately 1-10 ng per well in a coating buffer (15 mM sodium carbonate, 35 mM sodium bicarbonate, pH 9.6) overnight at 4° C. The well surface was then blocked with a blocking buffer (DPBS, 0.05% Tween 20, 5% milk) at room temperature for 2 hours. To test an immune response, the immunized serum was serially 5-fold diluted in the blocking buffer. The diluted sera were incubated with the antigen coated wells at room temperature for 2 hours. […] Three washes with 1x PBST (DPBS, 0.05% Tween 20) were carried out to remove nonspecific absorbance between incubations. […] After the STOP solution (R&D system), the plates were read at multiple wavelengths (450 nm and 550 nm) on a plate reader (Multiskan GO, Thermo Fisher). A false positive Nb binder was defined if any of the following two criteria was met: i) the ELISA signal can only be detected at a concentration of 10 μM and was under detected at 1 μM concentration. ii) At 1 μM concentration, a pronounced signal decrease (by more than 10-fold) was detected compared to the signal at 10 μM, while there were no signals can be detected at lower concentrations. […]

[8] = biological target: T4, PDZ domain of mitochondrial outer …; experiment: SPR, PDZ immobilised

| Binder | Kd (human serum albumin [1]) [nM] | koff (human serum albumin [1]) [s⁻¹] | kon (human serum albumin [1]) [M⁻¹ s⁻¹] | ELISA affinity (LogIC50 (oD450nm)) (human serum albumin [2]) | binding result (MBP-PDZ fusion protein) | other results |
| --- | --- | --- | --- | --- | --- | --- |
| H30 (VHH) VHH: HVQLVESGGGLAQAGGSLRLSCAASGGTFSNSCMGWFRQAPGMEREFVAIIRSTGHTTYADSVEGRFTVSRDIAKNTVYLEMNSLKPEDTAVYSCVAGVSDYGCYRTSGIKYWGQGTQVTVSS | 0.164 | 0.000168 | 1.03e+06 | 5.89 | – | – |
| H18 (VHH) VHH: EVQLVESGGGLVQAGGSLRLSCTASGPKDTPYTMGWFRQVPGKEREFVASVLWSGINTDYADSVKGRFAISRNNAKNTMYLQMNSLKPEDTAVYYCAAGYGLGFYRSISQYDYWGHGTQVTVSS | 0.502 | 8.71e-05 | 171000 | 5.65 | – | – |
| H20 (VHH) VHH: EVQLVESGGGLVQAGGSLRLSCTASGPKDTPYTMGWFRQVPGKEREFVASVLWSGINTDYADSVKGRFAISRNNAKNTMYLQMNSLKPEDTAVYYCAAGYGLGFYRTVSQYDYWGHGTQVTVSS | 0.247 | 3.8e-05 | 154000 | 5.76 | – | – |
| H16 (VHH) VHH: QVQLVESGGGLVQTGGSLTLSCAASGRTFSTKSMGWFRQAPGKEREFVADINWNGGITHYADSVEGRFTISRDNANDMVYLQMNSLKPEDTAVYYCAGGRYSTLFSKSEADYDYWGQGTQVTVSS | 0.0862 | 0.000116 | 1.34e+06 | 5.99 | – | – |
| H3 (VHH) VHH: QVQLVESGGGLVQAGGSLRLSCVASGRTFEPFVMGWFRQAPGKEREFVATISWSGGSLSYADSVKGRFTVSRDNAKNTVYLQMNSLKPEDTAVYYCAAAPGVGNYRYTFQYDYWGQGTQVTVSE | 0.454 | 0.000504 | 1.11e+06 | 7 | – | – |
| H4 (VHH) VHH: HVQLVESGGGLVQTGGSLRLACAASGRAFSTYAMGWFRQAPGKEREFVASINRSGSSTYYADSVKGRFTISRDNGKDTVYLQMNRLIPEDTAVYYCAADSEGVGFRNMLEYDYWGQGTQVTVSS | 0.266 | 0.000264 | 992000 | 5.4 | – | – |
| H11 (VHH) VHH: QVQLVESGGGLVQVGGSLRLSCAASGRTFSNYVMGWFRQAPGKEREFVAYIHWSGSSTSYADSVKGRFTISRDNTKNTMYLQMNSLKPEDTAVYYCTADQYASTLLRAAGEYWGQGTQVTVSS | 0.061 | 1.55e-05 | 255000 | 6.27 | – | – |
| P15 (VHH) VHH: QVQLVESGGGLVQAGGSLRLSCVASGRPFSSLDMGWFRQRPGKERDVVATINWTGDSTYYLDSVKGRFTISRDNAKNTVFLQMNSLKPEDTAVYYCAARGGGSSVDSEYDVGEFEYDYWGQGTQVTVSS | – | – | – | – | binds | – |
| G60 (VHH, also called G60(C1)) VHH: QMGRNSAEVQLVESGGSLRLSCAASGSGFSSSIIAWYRQAPGKQRELVAAIGGPGSTNYADFVEGRFTISRDNAKNTGYLQMNNLNPEDTAVYYCNEVTRSGREYWGQGTQVTVSS | – | – | – | – | – | Kd [3]: 1200 nM; koff [3]: 0.00586 s⁻¹; kon [3]: 4870 M⁻¹ s⁻¹; Kd [4]: 1300 nM; ELISA affinity (LogIC50 (oD450nm)) [5]: 2.49 |
| P1 (VHH) VHH: DVQLVESGGGLVQPGGSLRLSCAASGFTLDDYAIGWFRQAPGKEREGVSCISSHGSTYYADSVKGRFTISRDNVKNTLYLQMNSLKPEDTALYYCAASYYSDYEVAVCRSDALDAWGQGTQVTVSE | – | – | – | – | binds | – |
| H14 (VHH) VHH: HVQLVESGGGLVQAGGSLRLSCTASGRTFTPYTMGWFRQAPGKEREFVASILWSGNNRDYADSVKDRFAISRDNAKNTAYLQMNSLKPEDTAVYYCAAGDGLGFYRSVNQYDYWGQGTQVTVSS | 0.0223 | 5.57e-06 | 250000 | 5.96 | – | koff (human serum albumin [6]): 5.75e-06 s⁻¹ |
| P5 (VHH) VHH: DVQLVESGGGLVQAGDSLRLSCAASGITFRWYTMAWFRQAPGKERDFVATINWSGSDTNYADSVKGRFTISRDNAKNTVTLQMNSLQPEDTAVYYCAGVPGTSLSGETDPRDYDYWGQGTQVTVSE | – | – | – | – | binds | – |
| H7 (VHH) VHH: DVQLVESGGGSVQAGGSLRLSCAASGGTFSSYAMGWYRQAPGKEREFVSGISWSGSSIDYVDSVKGRFTISRDNAKNTVYLQMNSLKPEDTAVYYCGAADPMGLGYGLGPRPVDRLLSAECDYWGQGTQVTVSS | 1.09 | 9.79e-05 | 93500 | 5.62 | – | – |
| H21 (VHH) VHH: QVQLVESGGGLVQAGGSLRLSCAASGYTSGNDAMGWFRQAPGKEREFVGAIRWSGVSTYYADSVKGRFTISRDGAKNTLYLQMNSLKPEDTAVYYCAAKFTGSAWYGVQKLESTYWDYWGQGTQVTVSS | 0.266 | 0.000182 | 683000 | 5.63 | – | – |
| H2 (VHH) VHH: QVQLVESGGGLVQAGGSLRLSCTASGRTFTPYTIGWFRQAPGKEREFVASILWSGINTDYADSVKGRFAISRDNAKNAAYLQMSNLKPEDTAVYYCATGGGLGYYRSVSQYDYWGQGTQVTVSE | 0.17 | 3.99e-05 | 234000 | 5.88 | – | – |
| H25 (VHH) VHH: DVQLVESGGGLVQAGGSLRLSCAASGRTISDYGMAWFRQAPGKEREFVGVITSNSVTTYYADSVKGRFTISRDNTKNTVYLQMISLKPEDTAIYYCAARIPVGFYYNARNYDFWGQGTQVTVSS | 0.858 | 0.000802 | 936000 | 5.34 | – | – |
| H35 (VHH) VHH: EVQLVESGGGLVQAGGSLRVSCAVSGISIYHSGWYRQAPGKERELVAGISRGGSTNYADSVKGRFTISRDSGENTVYLQMNSLKPEDTAVYYCKIDWDYRGVSQTAWGQGTQVTVSS | – | – | – | – | – | binding result (human serum albumin [2]): no binding (tested: Nb titrated from 10 µM) |
| NbPDZ P10 (VHH) VHH: DVQLVESGGGLVQAGGSLRLSCTASGRTFSTYTMAWFRQAPGKEREFVAAITWSGTYYADSVKGRFTISRDNAKNTMYLQMNSLKPEDTAVYICAAVIGSTVDSYSPSDPLEYDYWGQGTQVTVSE | – | – | – | – | – | WT ELISA affinity (LogIC50 (oD450nm)) [7]: 5.21; Kd [8]: 0.0044 nM; koff [8]: 9.03e-06 s⁻¹; kon [8]: 2.06e+06 M⁻¹ s⁻¹ |
| P4 (VHH) VHH: HVQLVESGGGLVQAGGSLRLSCAAAGRTSSDYAMGWFRQAPGKEREFVSAINWSGISTYYADSVKGRFTISRDNAKNTVHLQMNSLKPEDTAVYYCAAEKLESLRNWHDPLMYDYWGQGTQVTVSE | – | – | – | – | binds | – |
| P2 (VHH) VHH: DVQLVESGGGLVQAGGSLRLSCAASGHTFSSYTMGWFHQAPGKEREFVAEISGTGGNTGYADSVKGRFTISRDNAKNTVYLQMNSLKPEDTAVYYCAAVIGSPTDSSDYRSSLDYDYWGQGTQVTVSE | – | – | – | – | binds | – |
| P6 (VHH) VHH: HVQLVESGGGLVQAGGSLRLSCAASGRTFSRYTMGWFHQAPGKEREFVAEISGTGGNTGYADSVKGRFTMSRDNAKNTVYLQMNSLKPEDTGVYYCAAVIGSPTDSSDYRSSLDYDYWGQGTQVTVSE | – | – | – | – | binds | – |
| P3 (VHH) VHH: DVQLVESGGGLVQAGGSLRLSCAASGRTFSSYTMGWFHQAPGKEREFVAEIGGTGGNTGYADSVKGRFTISRDNAKNTVYLQMNSLKPEDTAVYYCAAVIGSPTDSSDYRSSLDYDYWGQGTQVTVSE | – | – | – | – | binds | – |
| H28 (VHH, also called N28) VHH: DVQLVESGGGLAQAGGSLRLSCAASGRTFSNECMGWFRQAPGKEREFVATIRSTGHISYATSVQGRFTVSRDIAKNTVYLEMNNLKPEDTAVYSCGAGVSDYGCYRTSGYNYWGQGTQVTVSS | 1.66 | 0.00868 | 5.24e+06 | 5.12 | – | – |
